Data reported in PMC5371579, “Expression of a new laccase from Moniliophthora roreri at high levels in Pichia pastoris and its potential application in micropollutant degradation” (AMB Express, 2017).

Assays:
Experiment in all cases: purified protein
Assay type in all cases: biochemical, Moniliophthora roreri
purified protein [1] = substrate: COc1ccccc1O; settings: 100 mM citrate phosphate buffer, pH 5 (optimum)
purified protein [2] = substrate: CCn1c(=NN=c2sc3cc(S(=O)(=O)O)ccc3n2CC)sc2cc(S(=O)(=O)O)ccc21; settings: 100 mM citrate phosphate buffer at optimal pH (pH 2 stated for ABTS)
purified protein [3] = substrate: COc1cccc(OC)c1O; settings: 100 mM citrate phosphate buffer, pH 4 (optimum)
purified protein [4] = substrate: COc1cc(C=NN=Cc2cc(OC)c(O)c(OC)c2)cc(OC)c1O; settings: 100 mM citrate phosphate buffer, pH 4 (optimum)

B1: Mrl2 (Moniliophthora roreri MCA 2997) (protein)
chain: SIGPIADLVISNQDVSPDGFTRSAVVAGGDTIGPLIVGNKNDNLQINVVNNLDDDTMLQSTSIHWHGFFQQSTNWADGTAFVNQCPIAKGNSFLYDFDATDQAGTFWYHSHLSTQYCDGLRGPIVIYDPDDPHASLYDVDDESTVITLADWYHTKAKEITFGTPDSTLINGLGRWSQGNETDLSVITVTSGQRYRMRLINTACDAAYTFSIDNHTMTVIEADAVNIEPIEVDSLTIYAGQRYSFVLNADQAVGNYWIRANPNIGTMGYTNGINSAILRYDTAEEEEPDVLDITSTNSLSEADLVPLENPGAPGDPVVGGVDYALHLDFAFTSAATFTVNDATFVPPTVPVLLQILSGAQTADTLLPSGSVVALPSNSTIELSMTGGLLGLEHPIHLHGHNFDVVRVAGSTEYNYENPIRRDVVNAGSTSDNVTIRFTTDNPGPWILHCHIDWHLEAGFAIVFAEATDEWVDTIDPSDAWENLCPTYDALSDDDL
notes: native signal peptide replaced by S. cerevisiae alpha-factor leader (Kex2 cleavage; mature N-terminus SIGPI from primer); no tag (stop codon in reverse primer); codon-optimized gene; secreted from Pichia pastoris X-33, DEAE-purified, glycosylated (~90 kDa; calculated 54 kDa); EC 1.10.3.2
- Km (purified protein [1]): 2235 ± 117.5 µM
- kcat (purified protein [1]): 37 s⁻¹
- kcat/Km (purified protein [1]): 16000 M⁻¹ s⁻¹
- Km (purified protein [2]): 24.13 ± 1.9 µM
- kcat (purified protein [2]): 316 s⁻¹
- kcat/Km (purified protein [2]): 1.31e+07 M⁻¹ s⁻¹
- Km (purified protein [3]): 358 ± 58.5 µM
- kcat (purified protein [3]): 74 s⁻¹
- kcat/Km (purified protein [3]): 207000 M⁻¹ s⁻¹
- Km (purified protein [4]): 12.45 ± 1.6 µM
- kcat (purified protein [4]): 21 s⁻¹
- kcat/Km (purified protein [4]): 1.68e+06 M⁻¹ s⁻¹
